# Experimental data taken from patent EP1230262B1 (BROWN UNIVERSITY RESEARCH FOUNDATION, dated 2017).
# B1: decorin proteoglycan (core and side chains), recombinant, vaccinia system (other, UniProt P07585 31-359, looked up)
# chain: DEASGIGPEVPDDRDFEPSLGPVCPFRCQCHLRVVQCSDLGLDKVPKDLPPDTTLLDLQNNKITEIKDGDFKNLKNLHALILVNNKISKVSPGAFTPLVKLERLYLSKNQLKELPEKMPKTLQELRAHENEITKVRKVTFNGLNQMIVIELGTNPLKSSGIENGAFQGMKKLSYIRIADTNITSIPQGLPPSLTELHLDGNKISRVDAASLKGLNNLAKLGLSFNSISAVDNGSLANTPHLRELHLDNNKLTRVPGGLAEHKYIQVVYLHNNNISVVGSSDFCPPGHNTKKASYSGVSLFSNPVQYWEIQPSTFRCVYVRSAIQLGNYK
# modifications: glycosaminoglycan side chain
# notes: also called DEC-PG; DECPG
# B2: γ-sarcoglycan, recombinant human, 35S-labelled, in vitro transcribed and translated (other, UniProt Q13326 1-291, looked up)
# chain: MVREQYTTATEGICIERPENQYVYKIGIYGWRKRCLYLFVLLLLIILVVNLALTIWILKVMWFSPAGMGHLCVTKDGLRLEGESEFLFPLYAKEIHSRVDSSLLLQSTQNVTVNARNSEGEVTGRLKVGPKMVEVQNQQFQINSNDGKPLFTVDEKEVVVGTDKLRVTGPEGALFEHSVETPLVRADPFQDLRLESPTRSLSMDAPRGVHIQAHAGKIEALSQMDILFHSSDGMLVLDAETVCLPKLVQGTWGPSGSSQSLYEICVCPDGKLYLSVAGVSTTCQEHNHICL
# modifications: 35S label; not glycosylated
# notes: also called gamma-sarcoglycan
# B3: decorin core (no side chains), recombinant, vaccinia system (other, UniProt P07585 31-359, looked up)
# chain: DEASGIGPEVPDDRDFEPSLGPVCPFRCQCHLRVVQCSDLGLDKVPKDLPPDTTLLDLQNNKITEIKDGDFKNLKNLHALILVNNKISKVSPGAFTPLVKLERLYLSKNQLKELPEKMPKTLQELRAHENEITKVRKVTFNGLNQMIVIELGTNPLKSSGIENGAFQGMKKLSYIRIADTNITSIPQGLPPSLTELHLDGNKISRVDAASLKGLNNLAKLGLSFNSISAVDNGSLANTPHLRELHLDNNKLTRVPGGLAEHKYIQVVYLHNNNISVVGSSDFCPPGHNTKKASYSGVSLFSNPVQYWEIQPSTFRCVYVRSAIQLGNYK
# How the values were obtained:
# Experiment in all cases: overlay assay with 35S in vitro translated sarcoglycan
# [1] = target: T1, α-sarcoglycan, recombinant human, 35S-labelled, in vitro transcribed and translated (human, UniProt Q16586 1-387, limits assumed, 35S label; not glycosylated)
# T1 construct: also called alpha-sarcoglycan
# T1 sequence (looked up): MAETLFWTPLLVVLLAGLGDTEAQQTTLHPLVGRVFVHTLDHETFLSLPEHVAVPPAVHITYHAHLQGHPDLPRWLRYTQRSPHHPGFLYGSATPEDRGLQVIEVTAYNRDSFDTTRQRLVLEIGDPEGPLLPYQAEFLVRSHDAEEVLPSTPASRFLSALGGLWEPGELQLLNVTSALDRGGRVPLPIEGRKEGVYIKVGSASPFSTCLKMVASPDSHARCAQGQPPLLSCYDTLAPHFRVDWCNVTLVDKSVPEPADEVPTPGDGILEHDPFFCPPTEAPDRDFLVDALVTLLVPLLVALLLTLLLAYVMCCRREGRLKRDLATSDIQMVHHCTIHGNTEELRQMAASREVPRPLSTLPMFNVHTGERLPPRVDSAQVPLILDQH
# [2] = target: B1
# [3] = target: B3
Binder,binding result [1],binding result [2],binding result [3]
B1,no binding,,
B2,,no binding,no binding
B3,no binding,,
